Where two headings read alike, the source gives them in different places. Oligonucleotides are written 5' to 3', each unit as a sugar letter and its base; * is a phosphorothioate linkage, no mark a phosphodiester; rarer units and linkages stand in square brackets, end groups in braces. Plain capitals give the bases only. {PEG20K-NH2} = 20 kDa PEG attached to the 5' nucleotide via an amine linker; [invdT] = inverted (3'-3') thymidine; d = 2'-deoxy (DNA); m = 2'-O-methyl
Experiments:
[1] = tested on: full length human vWF binding to lyophilized platelets; test: Full length human von Willebrand Factor platelet binding assay (FACS); type: cell-based; conditions: 5 nM full length human vWF, lyophilized platelets, botrocetin
In short: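 Aptamer titrations (0.1–1000 nM) pre-incubated with 5 nM full-length human vWF, then added to lyophilized platelets plus botrocetin for 15 min at 37 °C in PBS/0.5% BSA. Bound vWF detected by anti-vWF then FITC secondary antibody via flow cytometry MFI; % inhibition versus no-aptamer binding fitted for IC50.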

[2] = biological target: vWF (Homo sapiens, UniProt P04275, D1472H/Q852R/T1381A); test: cellular / biological vWF dependent assays of Example 3, not specified further; type: cell-based; conditions: in words; FACS, BIPA (and PFA-100) assays of Example 3
Sequence of vWF (P04275 764-2813 Q852R/T1381A/D1472H): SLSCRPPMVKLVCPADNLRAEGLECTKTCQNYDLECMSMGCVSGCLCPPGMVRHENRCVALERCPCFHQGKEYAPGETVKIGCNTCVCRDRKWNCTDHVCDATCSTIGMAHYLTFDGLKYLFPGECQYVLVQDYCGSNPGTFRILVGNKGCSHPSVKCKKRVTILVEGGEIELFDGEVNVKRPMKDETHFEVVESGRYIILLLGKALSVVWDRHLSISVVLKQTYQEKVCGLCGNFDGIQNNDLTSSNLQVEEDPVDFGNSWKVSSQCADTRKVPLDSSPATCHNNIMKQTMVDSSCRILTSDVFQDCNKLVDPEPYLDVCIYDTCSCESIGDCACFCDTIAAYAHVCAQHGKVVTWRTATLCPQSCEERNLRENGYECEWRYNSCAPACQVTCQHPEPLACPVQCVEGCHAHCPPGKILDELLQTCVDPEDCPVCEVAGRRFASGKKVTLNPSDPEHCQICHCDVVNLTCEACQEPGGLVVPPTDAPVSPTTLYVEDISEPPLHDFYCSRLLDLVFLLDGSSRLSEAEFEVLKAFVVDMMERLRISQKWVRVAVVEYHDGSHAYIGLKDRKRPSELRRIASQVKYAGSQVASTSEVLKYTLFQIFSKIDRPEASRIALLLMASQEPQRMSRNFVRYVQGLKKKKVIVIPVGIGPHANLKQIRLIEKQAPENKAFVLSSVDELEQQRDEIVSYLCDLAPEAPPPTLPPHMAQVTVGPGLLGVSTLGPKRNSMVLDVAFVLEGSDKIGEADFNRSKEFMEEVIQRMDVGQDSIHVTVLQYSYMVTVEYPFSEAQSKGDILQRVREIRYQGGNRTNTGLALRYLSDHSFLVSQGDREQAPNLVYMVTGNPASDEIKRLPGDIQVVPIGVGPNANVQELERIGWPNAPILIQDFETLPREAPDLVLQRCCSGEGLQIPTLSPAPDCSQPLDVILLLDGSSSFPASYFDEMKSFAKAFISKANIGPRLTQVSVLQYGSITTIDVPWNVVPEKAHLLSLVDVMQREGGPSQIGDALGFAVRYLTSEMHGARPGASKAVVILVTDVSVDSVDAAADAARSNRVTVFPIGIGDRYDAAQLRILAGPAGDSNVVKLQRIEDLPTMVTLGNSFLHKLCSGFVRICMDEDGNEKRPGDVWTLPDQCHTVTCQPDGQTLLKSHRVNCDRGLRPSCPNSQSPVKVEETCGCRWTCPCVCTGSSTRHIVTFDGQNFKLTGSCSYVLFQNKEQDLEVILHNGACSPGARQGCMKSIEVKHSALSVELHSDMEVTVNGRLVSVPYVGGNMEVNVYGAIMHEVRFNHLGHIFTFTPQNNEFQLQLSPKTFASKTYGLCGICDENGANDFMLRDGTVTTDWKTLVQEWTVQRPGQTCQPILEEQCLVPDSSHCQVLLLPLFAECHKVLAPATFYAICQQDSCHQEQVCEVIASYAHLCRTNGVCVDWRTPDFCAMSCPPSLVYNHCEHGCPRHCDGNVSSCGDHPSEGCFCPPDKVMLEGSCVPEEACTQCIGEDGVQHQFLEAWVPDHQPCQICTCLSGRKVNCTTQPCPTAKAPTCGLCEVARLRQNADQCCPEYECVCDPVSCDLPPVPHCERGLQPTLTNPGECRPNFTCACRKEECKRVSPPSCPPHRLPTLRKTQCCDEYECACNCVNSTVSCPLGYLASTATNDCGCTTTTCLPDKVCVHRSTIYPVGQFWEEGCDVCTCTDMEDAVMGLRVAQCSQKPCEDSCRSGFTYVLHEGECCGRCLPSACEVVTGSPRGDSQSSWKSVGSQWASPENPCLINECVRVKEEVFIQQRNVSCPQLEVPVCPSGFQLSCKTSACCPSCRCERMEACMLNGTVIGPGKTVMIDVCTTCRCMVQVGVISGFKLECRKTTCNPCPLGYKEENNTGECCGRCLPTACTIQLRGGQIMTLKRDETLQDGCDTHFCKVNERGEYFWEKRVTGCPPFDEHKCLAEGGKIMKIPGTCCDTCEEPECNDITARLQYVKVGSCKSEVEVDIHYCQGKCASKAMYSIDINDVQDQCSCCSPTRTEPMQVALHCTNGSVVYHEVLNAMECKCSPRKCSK
Description: The effectiveness of various aptamers in blocking vWF function in several biological assays is described in this Example.
In one assay botrocetin is used. Botrocetin, a protein isolated from snake venom, is known to induce von Willebrand Factor binding to the gpib receptor on live and fixed platelets. This reaction causes agglutination of suspensions of fixed platelets via vWF multimerization. In preparations of platelet rich plasma (hereinafter “PRP”), vWF/botrocetin induction of agglutination is followed by a second phase of platelet aggregation caused by metabolic activation of the platelets. These two reactions: vWF binding to fixed platelets and vWF mediated platelet aggregation, can be used to measure the activity of aptamers of the invention.

[3] = tested on: botrocetin induced platelet aggregation; test: Inhibition of botrocetin induced platelet aggregation (BIPA) in human PRP; type: cell-based; conditions: human platelet rich plasma
Method: In platelet rich plasma isolated from fresh human blood, botrocetin induces platelet aggregation via vWF. Platelet aggregate formation can be measured optically as an increase in % light transmittance on a Chronolog Model 490-4D Aggregometer because aggregation of platelets clarifies the plasma. Aptamers of the invention were analyzed for their ability to inhibit botrocetin induced platelet aggregation (“BIPA”) in human blood. An aptamer of the invention was considered to be active if it could prevent aggregate formation for six minutes post botrocetin addition.
In order to determine the activity of aptamers on live human platelets, BIPA assays were done using freshly prepared platelet rich plasma. Blood was obtained from healthy human donors who had not taken NSAIDS for at least five days. […] Collected blood was pooled into 15 mL conical tubes and was spun at 200 g for 20 minutes. The turbid, yellow layer of platelet rich plasma (“PRP”) was withdrawn from the tubes, pooled, and set aside at room temperature. The remaining blood was spun at 2500 g for ten minutes. The clarified layer of plasma, known as platelet poor plasma (“PPP”), was withdrawn and set aside at room temperature. PRP was aliquoted into cuvettes containing stir bars at a volume of 470 uL. A sample of 500 uL of PPP was aliquoted into a cuvette and placed in the PPP reference cell of the platelet aggregometer. Samples of PRP were prewarmed at 37 degrees C. in the platelet aggregometer for 3-5 minutes before being used in BIPA assays. First, the concentration of botrocetin needed to induce platelet aggregation for each individual donor was determined by titration. This concentration of botrocetin was used for the remainder of the experiment. Next, aptamer was assayed by adding titrations of aptamer (zero, 1 nM to 1000 nM) to prewarmed PRP for one minute, followed by addition of botrocetin. With platelet aggregation, an increase in amplitude of light transmission is seen (FIG. 8). The concentration at which platelet aggregation is blocked at 90% or greater after 6 minutes is reported in the final column of Table 26.

[4] = tested on: vWF dependent platelet plug formation, human whole blood; test: PFA-100 assay, human whole blood; type: cell-based; conditions: citrated human whole blood; minimum concentration that extends closing time to 300 seconds
Description: Another assay of this Example, using the PFA-100 instrument, is an agonist independent but vWF dependent assay that uses the PFA-100 instrument (Harrison et al., Clin. Lab. Haem., v24, p 225-32 (2002)). The PFA-100 simulates the formation of a hemostatic plug under conditions of high shear force in vivo by recording the time required for a platelets to aggregate and block the flow of citrated whole blood through a microscopic aperture in a membrane coated with collagen and either epinephrine or ADP. This activity is von Willebrand factor dependent as high MW vWF multimers bind to immobilized collagen on the membrane and then bind to and activate platelets because of the shear force induced by drawing the blood through the microscopic aperture.
Fresh whole blood was collected from healthy non-steroidal anti-inflammatory drug (NSAID) free cynomolgus macaques. Aptamers were diluted with physiological saline from Aldon (Cat#9420306) in no-additive vacutainer tubes (Cat#366434, Becton Dickenson). Samples were loaded onto collagen/epinephrine test cartridges (Cat#B4170-20A, Dade Behring) which were used in the PFA-100 machine (Dade Behring). Trigger solution (Cat#B4170-50, Dade Behring) was used in the self-test and to pre-wet the test cartridges. O-ring cleaning pads (Cat#B4170-73, Dade Behring) were used in the self-test and in the O-ring cleaning process.
A self-test, which included an O-ring cleaning process, was always run on the PFA-100 machine before running any samples to ensure proper function of the machine.
During the entire experiment, the tubes of whole blood were gently inverted every five minutes to prevent settling.
In order to assay the titration of aptamer in whole blood, the aptamer was added to no-additive vacutainer tubes and diluted to the desired concentrations (ex: 0 nM, 1 nM to 1000 nM) using physiological saline such that the final volume was […]. When the PFA-100 was ready to run the next set of samples, 1940 μl of whole blood was added to the tube containing a concentration of aptamer. This tube was gently inverted three times to thoroughly mix the aptamer and blood. Samples were always run in duplicate on the PFA-100 machine. 800 μl of this blood mixture was loaded into the collagen/epinephrine test cartridges. The test cartridges were loaded onto the PFA-100 machine. The time of occlusion of the aperture was measured by the PFA-100, with a maximal time of 300 seconds. We estimate the IC95 in this assay to be the minimum concentration of aptamer that extends the closing time to 300 seconds.

[5] = pharmacokinetics after 3 mg/kg IV in cynomolgus macaques (Oligreen, HPLC); type: in vivo; conditions: cynomolgus monkey, in vivo, iv, 3 mg/kg
Method: ARC1368 (SEQ ID NO 291), 1779 (SEQ ID NO 320) and 1780 (SEQ ID NO 321) (as described in Example 2 above) were injected intravenously into cynomolgus macaques (n=3/group) at a dosage of 3 mg/kg which was expected to yield an instantaneous plasma concentration of 3 uM, approximately 30-fold higher than the putative effective dose. Subsequently, citrated blood samples were collected at regular intervals and processed for plasma.
Subsequently, plasma aptamer concentrations were determined using the Oligreen assay (Gray et al., Antisense and Nucleic Acid Drug Development 7 (3):133-140 (1997). The data were subsequently analyzed using the program WinNonlin to yield the pharmacokinetic parameters listed in Tables 29 to 31 below.
Following the Oligreen assay analysis, plasma aptamer concentrations were determined for the animals dosed with ARC1779 (SEQ ID NO 320) using a validated HPLC-based assay. The HPLC data were analyzed via noncompartmental and 2-compartment analysis using the program WinNonlin.

[6] = tested on: full length human vWF (SEQ ID NO 7); test: dot blot KD determination and extent of binding, full length human vWF; conditions: dot blot; for Kd: 12 point protein titration, 1xDPBS plus 0.1 mg/mL BSA, room temperature, 30 minutes, read-out: full length human vWF KD;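 for all read-outs here: dot blot binding of aptamers to full length human vWF across a protein titration, incubated 30 minutes at room temperature in 1x DPBS with BSA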
[7] = tested on: intra-arterial thrombosis of carotid arteries; test: cynomolgus macaque electrolytic thrombosis model; type: in vivo, cynomolgus monkeys; conditions: animals treated with Reopro
Method: A study was performed to test the efficacy of ARC1779 (SEQ ID NO 320) in inhibiting intra-arterial thrombosis in a well documented non-human primate electrolytic thrombosis model. See, e.g., Rote et al., Stroke, 1994: 25, 1223-1233.
Each animal was anesthetized prior to surgical preparation, intubated and maintained in anesthesia with isoflurane inhalant anesthetic to effect delivered through a volume-regulated respirator. An intravenous catheter was also placed in a peripheral vein for administration of lactated Ringer's solution during the procedure.
A catheter was placed in the femoral artery of each animal for continuous monitoring of arterial blood pressure. Similarly a catheter was placed in the femoral vein for blood sample collection. Each carotid artery was instrumented with a Doppler flow probe connected to a flow meter. The flow probes were placed around the artery at a point proximal to the insertion of the intra-arterial electrode and stenosis. The stenosis was placed around each carotid artery so that the […] was reduced by approximately 50% to 60% without altering the mean […]. Blood flow in the carotid arteries was monitored and recorded continuously throughout the observation periods.
Electrolytic injury to the intimal surface of each carotid artery was accomplished via placement of an intravascular electrode. Each electrode was connected to the positive pole of a constant current device and cathode connected to a distant subcutaneous site. Continuous current was delivered to each vessel for a period of 3 hours or for 30 minutes after complete occlusion, whichever was shorter.
Once the electrodes were placed on the right carotid artery (“RCA”) the animal was administered the test article as indicated in Table 32 above. Approximately 15 minutes after test article administration, the electrical current was applied at 100 μA. Blood samples and CBT measurements were collected at the time points specified in Blood Sample Collection Schedule as indicated in FIG. 31. The current was terminated ˜30 minutes after the blood flow signal remained stable at zero flow (which indicates an occlusive thrombus had been formed at the site) or after 180 minutes of electrical stimulation. Approximately 195 minutes after the test article was administered, the left carotid artery (“LCA”) had electrical current administered in a similar fashion as previously described for the RCA. After termination of all surgical procedures and sample collection each animal was euthanized.
An additional 10 cynomolgus monkeys (2.5 to 3.5 kg) were divided into treatment groups 5 to 7 and were treated according the regimen indicated in Table 33 below.
The animal procedure for each treatment group in Table 33 was conducted as reported for the animals in Example 5B.

[8] = tested on: rabbit vWF A1 domain (SEQ ID NO 6); test: 3-point dot blot screen, rabbit vWF A1 domain; type: binding; conditions: 3-point dot blot screen, 20 nM rabbit vWF A1 domain; ratio of fraction of aptamer bound with target protein to fraction bound without protein
Sequence of rabbit vWF A1 domain (SEQ ID NO 6) (as listed by the source): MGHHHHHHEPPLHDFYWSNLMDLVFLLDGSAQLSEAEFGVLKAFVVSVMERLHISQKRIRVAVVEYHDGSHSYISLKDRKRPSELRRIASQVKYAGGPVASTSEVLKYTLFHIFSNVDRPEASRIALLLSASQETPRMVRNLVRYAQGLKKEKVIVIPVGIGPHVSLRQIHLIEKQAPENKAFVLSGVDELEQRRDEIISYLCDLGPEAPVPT
In short: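 Rabbit vWF A1 domain binding was screened by dot blot using three conditions: no target protein, human vWF, and rabbit vWF A1 domain at 100 nM (20 nM in the screen run twice). Radiolabeled aptamer bound to nitrocellulose was quantified, and results are expressed as the ratio of bound fraction with protein to bound fraction without protein.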

[9] = tested on: full length human vWF; test: 3-point dot blot screen, full length human vWF; type: binding; conditions: 20 nM full length human vWF, ratio of fraction of aptamer bound with target protein to fraction bound without protein
In short: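 Unique aptamer clones tested twice by nitrocellulose dot blot with no protein, 20 nM full-length human vWF or 20 nM rabbit vWF A1 domain. Value is fraction of aptamer bound with target divided by fraction bound without protein.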

[10] = tested on: rabbit vWF A1 domain (SEQ ID NO 6); test: dot blot KD determination, rabbit vWF A1 domain; type: binding; conditions: dot blot, 12 point protein titration, 1xDPBS plus 0.1 mg/mL BSA, room temperature, 30 minutes
Method: A 12 point protein titration was used in the dot blot assay (300 nM, 100 nM, 30 nM, 10 nM, 3 nM, 1 nM, 300 pM, 100 pM, 30 pM, 10 pM, 3 pM, 0 pM) in 1×DPBS plus 0.1 mg/mL BSA at room temperature for 30 minutes.

[11] = read-out: Inhibition of full length hVWF binding in FACS assay, Average IC50

Molecule: GGACGATCTGACTAGCTCCAGTGTTTTATCTAATAACCGTCC (DNA, backbone not given here) [SEQ ID NO 208, minimized DNA aptamer]
- IC50 [1, 11]: 4300 pM
- activity in the cellular / biological assays [2]: demonstrated activity

Molecule: PEG20K-NH2-dGdGdCdGTdGdCdAdGTdGdCdCTTdCdGdGdCdCdGTdGdCdGdGTdGdCdCTdCdCdGTdCdAdCdGdCdC-3T (GGCGTGCAGTGCCTTCGGCCGTGCGGTGCCTCCGTCACGCC; DNA, [invdT] at 3' end, 5' {PEG20K-NH2}, backbone not given here) [ARC1885, 20 kDa PEG conjugate of ARC1172]
- IC90 [3]: ~50 nM
- ~IC95 PFA-100 (nM) with citrated human whole blood [4]: ~100 nM

Molecule: PEG40K-NH2-mGmCmGmUdGdCdAmGmUmGmCmCmUmUmCmGmGmCdCmG-s-TmGdCdGdGTmGmCdCmUdCdCmGmUdCmAmCmGmC-3T [ARC1780]
- IC90 [3]: ~100 nM
- ~IC95 PFA-100 (nM) with citrated human whole blood [4]: ~100 nM
- AUCall, Mean [5]: 751.065 µg·h/mL
- AUClast, Mean [5]: 751.065 µg·h/mL
- MRTlast, Mean [5]: 10.78 h
- distribution phase [5]: prolonged distribution phase
- pharmacokinetic profile [5]: mainly monophasic

Molecule: mGmCmGmUdGdCdAmGmUmGmCmCmUmUmCmGmGmCdCmGmTmGdCdGdGTmGmCdCmUdCdCmGmUmCmAmCmGmC-3T (mGmCmGmUdGdCdAmGmUmGmCmCmUmUmCmGmGmCdCmGmTmGdCdGdGdTmGmCdCmUdCdCmGmUmCmAmCmGmC[invdT]) [ARC1525]
- binding to human vWF ([6]; in words): no binding at all
- activity in the cellular / biological assays [2]: did not display activity

B1: Reopro: IIbIIIa antagonist (antibody, chains of the INN, looked up, V domains shown)
VH: EVQLQQSGTVLARPGASVKMSCEASGYTFTNYWMHWVKQRPGQGLEWIGAIYPGNSDTSYIQKFKGKAKLTAVTSTTSVYMELSSLTNEDSAVYYCTLYDGYYVFAYWGQGTLVTVSA
VL: EIVLTQSPVTLSVTPGDSVSLSCRASRDISNNLHWFQQTSHESPRLLIKYASQSMSGIPSRFSGSGSGTDFTLSINSVETEDFGMYFCQQTNSWPYTFGGGTKLEIK
modifications: Fab
notes: IIbIIIa antagonist
- arteries that developed occlusive thrombi [7]: 20%

B2: AMX238.E9: DNA SELEX 2 aptamer clone (nucleic acid)
DNA: CTACCTACGATCTGACTAGCGTGCAGTGCCCATCTTAGGCCGTGCGGTGCCTCCGTCACGCTTACTCTCATGTAGTTCC
modifications: DNA, backbone not given here
notes: DNA SELEX 2 aptamer clone
- Screen Rabbit/No Protein [8]: 3.36
- Screen- Human/No Protein [9]: 3.44
- Kd [6]: 0.39 nM
- Kd [10]: 5.3 nM
- IC50 [1, 11]: 3400 pM
- IC50 ([1]; units in the cell: lower bound pM, upper bound nM, read-out: Inhibition of full length hVWF binding in FACS assay, IC50 range): 772 to 6500 pM
- activity in the cellular / biological assays [2]: slightly more potent

B3: AMX238.H5: DNA SELEX 2 aptamer clone (nucleic acid)
DNA: CTACCTACGATCTGACTAGCGTGCAGTGCCTATTCTAGGCCGTGCGGTGCCTCCGTCACGCTTACTCTCATGTAGTTCC
modifications: DNA, backbone not given here
notes: DNA SELEX 2 aptamer clone
- Screen Rabbit/No Protein [8]: 3.46
- Screen- Human/No Protein [9]: 3.75
- Kd [6]: 0.33 nM
- Kd [10]: 6 nM
- IC50 [1, 11]: 658 pM
- activity in the cellular / biological assays [2]: slightly more potent
